In the nanobody polyreactivity screen of Harvey et al. (2022):

Assay: yeast display, Sf9 membrane polyspecificity reagent, FACS + sequencing; frameworks hold sequencing errors
How it was run: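 Galactose-induced (36–48 hours) yeast carrying a synthetic nanobody display library were exposed to 10% biotinylated, detergent-solubilized Sf9 membrane reagent at 4 °C for 1 hour. FACS followed streptavidin microbead enrichment, using low and high (top ~1%) gates for expression (anti-HA) and reagent binding (streptavidin). Colony PCR, MiSeq 2 × 250 sequencing and CDR-length filtering followed. Labels for polyreactivity reflect the gate of origin.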

| Sequence | polyreactivity (PSR sort gate) |
| --- | --- |
| QVQLVESGGGLVQAGGRLRLSCAASGRIFGSYAMGWYRQAPGKERELVAAITFSGVNTYYADSVKGRFTISRDNAKNTVYLQMNRLKPEDTAVYYCAVRGPEAEYDYWGQGTQVTVSS | high polyreactivity |
| QVQLVESGGGLVQAGGRLRLSCAASGRIFKPNAMGSYRQAPGKEREFVARITRNTGSTYYADSVKGRFSISRDNEKNTVYLQMNSLKPEDNAVYDCAAGAPSYYYYWGHGTQVTVSS | high polyreactivity |
| QVQLVESGGGLVQAGGRLRLSCAASGRIFPVNAMGWYRQAPGKERELVAGITWSGDGSTYYADSVKGRFTISRDNAKNTVYLQMNSLKPEDTAVYYCAARLNLQGRYDYSGQGTQVTVSS | low polyreactivity |
| QVQLVESGGGLVQAGGRLRLSCAASGRIFTRYAMGWYRQAPGKERELVAAINYRGSSTYYADSVKGRFTISRDNAKNTVYLQMNSLKPEDTAVYYCNTYGQTDTYWRYYYWGQGTQVTVSS | high polyreactivity |
| QVQLVESGGGLVQAGGRLRLSCAASGRIFYFNAMGWYRQAPGKEREFVASINSIGDSTYYADSVKGRFTISRDNAKNTVYLQMNSLKPEDTAVYYCNADHGVINYRLDYWGQGTQVTVSS | low polyreactivity |
| QVQLVESGGGLVQAGGRLRLSCAASGRIFYNYAMGWYRQAPGKERELVAAISGSGGSTYYADSVKGRFTISRDNAKNTVYLQMNCLKPDDTAVYYCSTSGPQYYSRNFDYWGQGTQVTVSS | low polyreactivity |
| QVQLVESGGGLVQAGGRLRLSCAASGRIFYVYAMGGYRQAPGKERELVAAISRGGSTNSADSVKGRFTISRDNAKNTVYLQMNSLKPEDTAVYYCAASSLPHYSYRHSYLYVYWGQCTQVTVSS | low polyreactivity |
| QVQLVESGGGLVQAGGRLRLSCAASGRIYRRNTMGWYRQAPGKERELVAAITSSGGSTYADSVKGRFTISRDNAKNTVYLQMNSLKPEDTAVYYCATYVAYHRGYRTYDHWGQGTQVTVSS | low polyreactivity |
| QVQLVESGGGLVQAGGRLRLSCAASGRTFAYYAMGWYRQAPGKERELVASITTRDGSTYYADSVKGRFTISRDNAKNTVYLQMNSLKPEDTAVYYCAAATEYSSGYEYDYWGQGTQVTVSS | low polyreactivity |
| QVQLVESGGGLVQAGGRLRLSCAASGRTFRRYTMGWDRQAPGKERELVAANTSGGRTNYADSVKGRFTISRDNAKNTVYLQMNSLKPEDTAVYYCNAQNEIWRVTFSPYDRWGYDYWGQGTQVTVSA | low polyreactivity |
| QVQLVESGGGLVQAGGRLRLSCAASGRTFTPNAMGWYRQAPGKERELVAAIDWRGGRTYYADSVKGRFTISRDNAKNTVYLQMNSLKPEDTAVYYCAARVDGYHYKSAGYSYGVYYWGQGTQVTVSS | low polyreactivity |
| QVQLVESGGGLVQAGGRLRLSCAASGRTFYRNAMGWYRQAPGKERELVAGISVRGGRTYYADSVKGRFTISRDNAKNTVYLQMNSLKPEDTAVYYCNKRLSSSLSLKYDYWGQGTQVTVSS | high polyreactivity |
| QVQLVESGGGLVQAGGRLRLSCAASGRTFYSNAMGWYSQAPGKERELVAAITFGGGSTYYADSVKGRFTISRDNAKNTVYLQMNSLKPEDTAVYYCAAEGYKYRFYYWGQGTQVTVSS | low polyreactivity |
| QVQLVESGGGLVQAGGRLRLSCAASGRTFYSYTMGWYRPAPGKERELVAAIRYSGDRTYYADSVKGRFTISRDNAKNTVDLQMNSLKPEDTAVYYCGKAAPYPGSFYYWGQGTQVTVSS | low polyreactivity |
| QVQLVESGGGLVQAGGRLRLSCAASGRTIPYYAMGWSRQSPGKDREFVAAISGGGGSTHYADSVKGRFTISRDNAKNTVYLQMNSLKPEDTAVYYCNADKYSVYGEHPYDYWGQGSQVTVSS | low polyreactivity |
| QVQLVESGGGLVQAGGRLRLSCAASGRTIYGYDKGWYRQAPGKERELVAAINIGGRTNYADSVKGRFTISRDNAKNTVYLQMNSLKPEDTAVYYCADRYTFGPYLARSYGYWGQGTQVTVSS | low polyreactivity |
| QVQLVESGGGLVQAGGRLRLSCAASGRTLVSNAMGWYRQAPGKERELVAAITYSGGSTYYADSVKGRFTISRDNAKNTVYLQMNSLKPEDTAVYYCAKVGRLYRVGGYDYWGQGTQVTVSS | low polyreactivity |
| QVQLVESGGGLVQAGGRLRLSCAASGRTLWIYAMGWYRQAPGKERELVASITTRGGSTYYADSVKGRFTISRDNAKNTVYLQMKSLKPEDTAVYYCAAEGYTYYTYDPHDYWGQGTQVTVSS | high polyreactivity |
| QVQLVESGGGLVQAGGRLRLSCAASGRTMGWYRQAPGKERELVAAISSGGGSTYYADSVKGRFTISRDNAKNTVYLQMNSLKPEDTAVYYCARTTIAQLHSIVAPHDYWGQGTQVTVSS | low polyreactivity |
| QVQLVESGGGLVQAGGRLRLSCAASGSIFAGYAMGWYRQAPGKERELVAASSTDYADSVKGRFTISRDNAKNTVYLHMNSLKPEDTAVYYCAKVGFGIPGGFYYWGQGTQVTVSS | low polyreactivity |
| QVQLVESGGGLVQAGGRLRLSCAASGSIFASYALGWYRQAPGKERELVAVITRSGGSTYYADSVKGRFTISRDNAKNTVYLQMNSLKPEDTAVYYCAAQYGRTYYSRREYWGQGTQVTVSS | high polyreactivity |
| QVQLVESGGGLVQAGGRLRLSCAASGSIFDSYVMGWYRQAPGKERELVAAITYSGGSTYADSVKGRFTISRDNAKNTVYLEMNSLKPEDTAVYYCAAASYFYLYLLEDYWGQRTQVTVSS | low polyreactivity |

| Sequence | polyreactivity (PSR sort gate) |
| --- | --- |
| QVQLVESGGGLVQAGGRLRLSCAASGSIFIGYAMGWYRQAPGKERELVATISGSGGSTYYADSEKGRFTISRDNAKNTVSLQMNSLKPEDSAVYYCAAVSVSSWYDYWGQGTQVTVSS | low polyreactivity |
| QVQLVESGGGLVQAGGRLRLSCAASGSIMDTNAMGWYRQAPGKERELVARIDIDGSTNYADSVKGRFTISRDNAKKTVYLQMNSLKPEDTAVYYCNKDHSSYGASGYDYWGQGTQVTVSS | low polyreactivity |
| QVQLVESGGGLVQAGGRLRLSCAASGSNFDIYALGWYRQAPGKERELVAAIRGRGGSTYYADSVKGRFTISRDNAKNTVYLQMNSLKPEDTAVYYCAARNSYGNWRYYYWGQGTQVTVSS | high polyreactivity |
| QVQLVESGGGLVQAGGRLRLSCAASGSTFATYAMGWYRQAPGKERELVAVISRSGGSTYYADSVKGRFTISRDNAKNTVYLQMNCLKPEDTAVYYCAARPRGKYDYRGQGTQVTVSS | high polyreactivity |
| QVQLVESGGGLVQAGGRLRLSCAASGSTFDYYTMGGYRQAPGKERELVAGITSGGSTNYADSVKGRFTISRDNAKNTVYLQMNSLKPADTAVYYCAARVSKYYKPYGYWGQGTQVTVSS | high polyreactivity |
| QVQLVESGGGLVQAGGRLRLSCAASGSTFFKYDMGWYRQAPGKERELVAVITWSGGTTFYADSVKGRFTISRDNAKNTVYLQMNSLKPEDTAVYYCAADYYGYRYDYWGQGTQVTVSS | low polyreactivity |
| QVQLVESGGGLVQAGGRLRLSCAASGSTFGENVMGWYRQAPGKERELVAAISRGGSTYYADSVKGRFTISRDNAKNTVYLQMNSLKPEDTAVYYCAARTRSGPRYNYNYWGQGTQVTVSS | high polyreactivity |
| QVQLVESGGGLVQAGGRLRLSCAASGSTFGLNAMGRYRHAPGKEREFVASINFNDGSTYYADSVKGRFTISRDNAKNTVYLRMNSLKPEDTAVYYCAVELWWKWPFYYWGQGTQVTVSS | high polyreactivity |
| QVQLVESGGGLVQAGGRLRLSCAASGSTFPYNAMGCYRQAPGKERELVAAITSTGDSTYYADSVKGRFTISRDKAKNTVYLQMNSLKPEDTAVYYCAARSYASPGWRYEYWGQGTQVTVSS | low polyreactivity |
| QVQLVESGGGLVQAGGRLRLSCAASGSTFRRNAMGWYRQAPGKERELVATISPGARTNYADSVKGRFTISRDNAKNTVYLQMNSLKPEDTAVYYCNAEFTLLYPLYDYWGQGTQVTLSS | low polyreactivity |
| QVQLVESGGGLVQAGGRLRLSCAASGSTFSSNAMGWYRQAPGKERELVAAITTSGGSTYYADSVKGRFTISRDNAKTTVYLQMNSLKPEDTAVYYCAADLVHAYQWSIFLYGYWGQGTQVTVSS | low polyreactivity |
| QVQLVESGGGLVQAGGRLRLSCAASGSTFVPYAMGWSRQAPGKERELVAGITWSGGRTYYADSVKGRFTISRDNAKNTVYFQLNSLKPEDTAVYYCNVEHLVYKYDGYYSRYYRLYYWGQGTHVTVSS | low polyreactivity |
| QVQLVESGGGLVQAGGRLRLSCAASGSTFVRNAMGWYRQAPGKERELVAAITGTGDSTYYADSVKGRFTISRDNAKNTVYLQMNSLKPEDTAGYYCDANSDAYRYWYDYWGQGTQVTVSS | low polyreactivity |
| QVQLVESGGGLVQAGGRLRLSCAASGSTLNRNAMGWYRQAPGKERELVAAIRVSGGSTYYSDSVKGRFTISRDNAKNTVYLQMNSLNPEDTAVYYCGTRYVRARWYGYWGEGTQVTVSS | high polyreactivity |
| QVQLVESGGGLVQAGGRLRLSCAASGSTLPANAMGWYRQAPGKERELVSAITITTDGSTYYADSVKGRFTISRDNAKNTVYLQMNSLKPEDTAVYYCAVDRYRYHNRKMGYWGQGTEVTVSS | low polyreactivity |
| QVQLVESGGGLVQAGGRLRLSCAASGSTSLYYAMGWYRQAPGKEREFVAAITWSGGSTYYADSGKGRFTITRDNAKNTVYLQMNSLKPEDTAVYYCAGRSYGYSAGYYWGQGTQVTVSS | high polyreactivity |
| QVQLVESGGGLVQAGGRLRLSCAASGTIFYYNAMGWYRQAPGKERELVAVISQSGTSTYYADSVKGRFTNSRDNAKNTVYLQMNSLKPEDTAVYYCAADSRHGSIMDYWGLGTQVTVSS | low polyreactivity |
| QVQLVESGGGLVQAGGRLRLSCAASGTTFWNNAMGWYRQAPGKERELVPGISRSGGSTYYADSVKGRFTISRDNAKNTVYLQMNSLKPEDTAVYYCNKVNYAKRNYWGQGTQVTVSS | low polyreactivity |
| QVQLVESGGGLVQAGGRLRLSCAAYGSIFDGYAMGWYRQAPGKERELVAAISRGGRTYYADSVKGRFTISRDNAKNTVYLQMNSLKPEDTAVYYCAAVTRLDGNMDYWGQGTQVTVSS | high polyreactivity |
| QVQLVESGGGLVQAGGRLRLSCADSGRTYRKYAIGWYRQAPGKEMDMVAAISWSGGSTYYANSVKGRFTISRDNAKNTVYLQMNSLKPEDTAVYYCAAVPVHTGSLYWGFTTGYDYWGQGTQVTVSS | low polyreactivity |
| QVQLVESGGGLVQAGGRLRLSCADSGSTFVNSVMGWYRPAPGKERELVAGIRFRGGRTYYADSVKGRFTISRDNAKNTVYLQMNSLKPEDTAVYYCAKVQRQSVGFDYWGQGTQVTVSS | high polyreactivity |
